# Data from the Human Domainome abundance scans (Beltran et al. 2025).
# ± gives the uncertainty stated by the source.
# B1: SWI/SNF complex subunit SMARCC2, residues 599 to 641; numbered along this chain, Q8TAQ2 (parent)
# chain: REWTEQETLLLLEALEMYKDDWNKVSEHVGSRTQDECILHFLR
# Variants of: B1
# Test: abundance fitness (aPCA) (normalised: wild type 0, dead -1); higher = more abundant; growth selection in yeast, the domain comes from the species named
# Details: Homo sapiens
row,Variant,abundance fitness
1,REWTEQETLLLLEALEMYKDDWNKVSEHVGSRTADECILHFLR [Q34A],-0.235 ± 0.1
2,REWTEQETLLLLEALEMYKDDWNKVWEHVGSRTQDECILHFLR [S26W],-0.517 ± 0.1
3,REWTEQETLLLLEALEMYKDDWNKVYEHVGSRTQDECILHFLR [S26Y],-0.252 ± 0.12
4,REWTEQETLLLLEALEMYKDDWNKVTEHVGSRTQDECILHFLR [S26T],0.115 ± 0.08
5,REWTEQETLLLLEALEMYKDDWNKVREHVGSRTQDECILHFLR [S26R],0.219 ± 0.066
6,REWTEQETLLLLEALEMYKDDWNKVVEHVGSRTQDECILHFLR [S26V],0.071 ± 0.064
7,REWTEQETLLLLEALEMYKDDWNKVSEHVGSMTQDECILHFLR [R32M],-0.202 ± 0.15
8,REWTEQETLLLLEALEMYKDDWNKVSEHVGSFTQDECILHFLR [R32F],-0.417 ± 0.33
9,REWTEQETLLLLEALEMYKDDWNKVSEHVGSHTQDECILHFLR [R32H],-0.374 ± 0.11
10,REWTEQETLLLLEALEMYKDDWNKVSEHVGSATQDECILHFLR [R32A],-0.456 ± 0.093
11,REWTEQETLLLLEALEMYKDDWNKVSEHVGSCTQDECILHFLR [R32C],-0.432 ± 0.13
12,REWTEQETLLLLEALEMYKDDWNKVSEHVGSSTQDECILHFLR [R32S],-1.07 ± 0.17
13,REWTEQETLLLLEALEMYKDDWNKVSEHVGSGTQDECILHFLR [R32G],-0.727 ± 0.11
14,REWTEQETLLLLEALEMYKDDWNKVSEHVGSTTQDECILHFLR [R32T],-0.49 ± 0.097
15,REWTEQETLLLLEALEMYKDDWNKVSEHVGSQTQDECILHFLR [R32Q],-0.313 ± 0.15
16,REWTEQETLLLLEALEMYKDDWNKVSEHVGSDTQDECILHFLR [R32D],-1.04 ± 0.3
17,REWTEQETLLLLEALEMYKDDWNKVSEHVGSWTQDECILHFLR [R32W],-0.583 ± 0.15
18,REWTEQETLLLLEALEMYKDDWNKVSEHVGSPTQDECILHFLR [R32P],-1.36 ± 0.45
19,REWTEQETLLLLEALEMYKDDWNKVSEHVGSETQDECILHFLR [R32E],-0.472 ± 0.26
20,REWTEQETLLLLEALEMYKDDWNKVSEHVGSVTQDECILHFLR [R32V],-0.523 ± 0.13

row,Variant,abundance fitness
1,REWTEQETLLLLEALEMYKDDWNKVSEHVGSKTQDECILHFLR [R32K],0.207 ± 0.1
2,REWTEQETLLLLEALEMYKDDWNKVSEHVGSNTQDECILHFLR [R32N],-0.909 ± 0.24
3,REWTEQETLLLLEALEMYKDDWNKVSEHVGSYTQDECILHFLR [R32Y],-0.426 ± 0.18
4,REWTEQETLLLLEALEMYKDDWNKVSEHLGSRTQDECILHFLR [V29L],-0.07 ± 0.083
5,REWTEQETLLLLEALEMYKDDWNKVSEHSGSRTQDECILHFLR [V29S],-1.3 ± 0.37
6,REWTEQETLLLLEALEMYKDDWNKVSEHFGSRTQDECILHFLR [V29F],-0.668 ± 0.33
7,REWTEQETLLLLEALEMYKDDWNKVSEHPGSRTQDECILHFLR [V29P],-0.865 ± 0.11
8,REWTEQETLLLLEALEMYKDDWNKVSEHCGSRTQDECILHFLR [V29C],-0.635 ± 0.2
9,REWTEQETLLLLEALEMYKDDWNKVSEHRGSRTQDECILHFLR [V29R],-1.09 ± 0.17
10,REWTEQETLLLLEALEMYKDDWNKVSEHHGSRTQDECILHFLR [V29H],-0.931 ± 0.23
11,REWTEQETLLLLEALEMYKDDWNKVSEHMGSRTQDECILHFLR [V29M],0.092 ± 0.16
12,REWTEQETLLLLEALEMYKDDWNKVSEHGGSRTQDECILHFLR [V29G],-0.835 ± 0.27
13,REWTEQETLLLLEALEMYKDDWNKVSEHKGSRTQDECILHFLR [V29K],-0.53 ± 0.26
14,REWTEQETLLLLEALEMYKDDWNKVSEHAGSRTQDECILHFLR [V29A],-0.695 ± 0.17
15,REWTEQETLLLLEALEMYKDDWNKVSEHWGSRTQDECILHFLR [V29W],-0.931 ± 0.21
16,REWTEQETLLLLEALEMYKDDWNKVSEHDGSRTQDECILHFLR [V29D],-0.714 ± 0.24
17,REWTEQETLLLLEALEMYKDDWNKVSEHTGSRTQDECILHFLR [V29T],-0.297 ± 0.3
18,REWTEQETLLLLEALEMYKDDWNKVSEHEGSRTQDECILHFLR [V29E],-0.711 ± 0.18
19,REWTEQETLLLLEALEMYKDDWNKVSEHQGSRTQDECILHFLR [V29Q],-0.548 ± 0.17
20,REWTEQETLLLLEALEMYKDDWNKVSEMVGSRTQDECILHFLR [H28M],-0.341 ± 0.15

row,Variant,abundance fitness
1,REWTEQETLLLLEALEMYKDDWNKVSEAVGSRTQDECILHFLR [H28A],-0.381 ± 0.23
2,REWTEQETLLLLEALEMYKDDWNKVSESVGSRTQDECILHFLR [H28S],-0.747 ± 0.13
3,REWTEQETLLLLEALEMYKDDWNKVSEPVGSRTQDECILHFLR [H28P],-0.86 ± 0.17
4,REWTEQETLLLLEALEMYKDDWNKVSEGVGSRTQDECILHFLR [H28G],-0.341 ± 0.11
5,REWTEQETLLLLEALEMYKDDWNKVSEYVGSRTQDECILHFLR [H28Y],-0.225 ± 0.13
6,REWTEQETLLLLEALEMYKDDWNKVSECVGSRTQDECILHFLR [H28C],-0.376 ± 0.16
7,REWTEQETLLLLEALEMYKDDWNKVSEKVGSRTQDECILHFLR [H28K],-0.242 ± 0.18
8,REWTEQETLLLLEALEMYKDDWNKVSEIVGSRTQDECILHFLR [H28I],-0.265 ± 0.1
9,REWTEQETLLLLEALEMYKDDWNKVSETVGSRTQDECILHFLR [H28T],-0.256 ± 0.22
10,REWTEQETLLLLEALEMYKDDWNKVSENVGSRTQDECILHFLR [H28N],-0.853 ± 0.27
11,REWTEQETLLLLEALEMYKDDWNKVSEFVGSRTQDECILHFLR [H28F],-0.401 ± 0.23
12,REWTEQETLLLLEALEMYKDDWNKVSEWVGSRTQDECILHFLR [H28W],-0.138 ± 0.24
13,REWTEQETLLLLEALEMYKDDWNKVSEVVGSRTQDECILHFLR [H28V],-0.322 ± 0.097
14,REWTEQETLLLLEALEMYKDDWNKVSERVGSRTQDECILHFLR [H28R],-0.294 ± 0.082
15,REWTEQETLLLLEALEMYKDDWNKVSEQVGSRTQDECILHFLR [H28Q],-0.26 ± 0.26
16,REWTEQETLLLLEALEMYKDDWNKVSEDVGSRTQDECILHFLR [H28D],-1.16 ± 0.23
17,REWTEQETLLLLEALEMYKDDWNKVSEEVGSRTQDECILHFLR [H28E],-0.748 ± 0.41
18,REWTEQETLLLLEALEMYKDDWNKVSELVGSRTQDECILHFLR [H28L],-0.433 ± 0.1
19,REWTEQETLLLLEALEMYKDDWNKVSVHVGSRTQDECILHFLR [E27V],-0.515 ± 0.12
